Assay results from patent US20050147602.

Experiments:
[1] = test system: myc-tagged CHO cell-expressed CTHRC1
[2] = test system: His-tagged CTHRC1 expressed in Chinese hamster ovary cells (CHO)

Substance | cleavage of CTHRC1 (immunoblot after digestion) [1] | further results
thrombin | MMP-7 and thrombin do not cleave CTHRC1 | –
highly purified bacterial collagenase (VII, Sigma) | – | cleavage of CTHRC1 (immunoblot after digestion) [2]: highly purified bacterial collagenase (Sigma) (FIG. 30), as well as MMP-1 (FIG. 31) cleave CTHRC1 near the N terminus
MMP-7 | MMP-7 and thrombin do not cleave CTHRC1 | –
matrix metalloprotease 1 (MMP-1) | – | cleavage of CTHRC1 (immunoblot after 15 and 60 minutes digest) [1]: MMP-1 (FIG. 31) cleave CTHRC1 near the N terminus
